Measurements taken from patent US20100086997A1 (published 2010).

B2: Fc-fused recombinant human P75 (Fc fusion, UniProt P08138 29-250, looked up)
chain: KEACPTGLYTHSGECCKACNLGEGVAQPCGANQTVCEPCLDSVTFSDVVSATEPCKPCTECVGLQSMSAPCVEADDAVCRCAYGYYQDETTGRCEACRVCEAGSGLVFSCQDKQNTVCEECPDGTYSDEANHVDPCLPCTVCEDTERQLRECTRWADAECEEIPGRWITRSTPPEGSDSTAPSTQEPEAPPEQDLIASTVAGVVTTVMGSSQPVVTRGTTDN
notes: Bought from R&D Systems or made in-house; also called p75 neurotrophin receptor; LNGFR; not shown: Fc part

Key:
Test in all cases: SPR (Biacore 3000), Fc-fused receptor amine-coupled to CM5 chip, ligand in solution, 25 C
[1] = biological target: T1, human TrkB-Fc fusion protein (human, UniProt Q16620 32-430)
T1 construct: Bought from R&D Systems or made in-house; also called HuTrkB; Fc-fused recombinant human TrkB; not shown: Fc part
Procedure: (§1) A standard amine-coupling protocol was used in HBS-EP running buffer at 5 μl/min and involved three steps. […]. First, flow cells were activated with a 7-minute injection of a freshly prepared mixture of 200 mM EDC in 50 mM NHS; this step converted the chip's carboxylic acid groups to reactive esters. Next, receptors were diluted to ˜10 μg/mL in 10 mM sodium acetate buffer at pH 4.5 and coupled to the chip until the desired level had been reached. Finally, excess reactive esters were blocked with a 7-minute injection of 1M sodium ethanolamine-HCl (pH 8.5).
(§2) The Fab fragment of antibody 200.38B8 (38B8) was diluted from 0.7-480 nM in 3-fold increments. Samples were injected for 30 seconds at 100 μl/min allowing dissociation times of up to 10 mins. After each binding cycle, receptor surfaces were regenerated with a mildly acidic cocktail (10 mM glycine-HCl (pH 4.0), 500 mM NaCl, and 20 mM EDTA). […] Kinetic rate constants (kon and koff) were determined by fitting the binding data globally to a mass transport model and binding affinities were calculated from their ratio, KD=koff/kon.

[2] = biological target: B2
Procedure: as §1, §2

ProNGF = ProNGF (UniProt P01138 19-241)
Procedure: as §1, §2

[3] = biological target: T2, Fc-fused recombinant human TrkC (human, UniProt Q16288 32-429)
T2 construct: Bought from R&D Systems or made in-house; not shown: Fc part
Procedure: as §1, §2

[4] = biological target: T3, Fc-fused recombinant human TrkA (human, UniProt P04629-2 33-407, limits assumed)
T3 construct: Bought from R&D Systems or made in-house; not shown: Fc part
Procedure: as §1, §2

Sequence of ProNGF (P01138 19-241): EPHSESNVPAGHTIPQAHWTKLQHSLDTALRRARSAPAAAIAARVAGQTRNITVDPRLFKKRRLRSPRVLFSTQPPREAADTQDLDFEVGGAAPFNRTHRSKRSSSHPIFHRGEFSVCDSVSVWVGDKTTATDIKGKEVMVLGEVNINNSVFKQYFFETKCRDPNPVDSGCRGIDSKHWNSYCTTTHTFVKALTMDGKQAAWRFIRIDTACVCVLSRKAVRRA
T1 sequence (Q16620 32-430 limits assumed): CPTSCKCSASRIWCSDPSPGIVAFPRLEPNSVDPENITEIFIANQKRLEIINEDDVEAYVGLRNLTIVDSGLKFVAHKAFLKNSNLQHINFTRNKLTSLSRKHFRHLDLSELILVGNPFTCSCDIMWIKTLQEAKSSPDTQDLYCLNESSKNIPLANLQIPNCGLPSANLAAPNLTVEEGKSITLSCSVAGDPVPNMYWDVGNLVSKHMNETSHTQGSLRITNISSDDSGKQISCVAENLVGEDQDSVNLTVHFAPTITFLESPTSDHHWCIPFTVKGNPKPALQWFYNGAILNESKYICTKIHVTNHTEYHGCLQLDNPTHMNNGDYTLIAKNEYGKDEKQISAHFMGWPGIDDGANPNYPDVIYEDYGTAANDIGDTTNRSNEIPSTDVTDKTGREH
T3 sequence (P04629 other isoform, or with tags, fused parts or gaps limits assumed): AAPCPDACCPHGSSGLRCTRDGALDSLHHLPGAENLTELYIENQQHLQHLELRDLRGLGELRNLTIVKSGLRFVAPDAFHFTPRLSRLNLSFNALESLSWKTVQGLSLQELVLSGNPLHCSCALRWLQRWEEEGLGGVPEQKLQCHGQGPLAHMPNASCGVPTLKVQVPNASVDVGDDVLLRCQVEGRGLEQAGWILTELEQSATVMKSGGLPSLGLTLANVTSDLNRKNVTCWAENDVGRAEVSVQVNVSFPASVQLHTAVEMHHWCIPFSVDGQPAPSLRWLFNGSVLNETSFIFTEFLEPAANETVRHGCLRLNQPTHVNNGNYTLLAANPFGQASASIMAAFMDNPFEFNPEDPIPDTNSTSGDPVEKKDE

B1: brain-derived neurotrophic factor (BDNF) (ligand, UniProt P23560 129-247, looked up)
chain: HSDPARRGELSVCDSISEWVTAADKKTAVDMSGGTVTVLEKVPVSKGQLKQYFYETKCNPMGYTKEGCRGIDKRHWNSQCRTTQSYVRALTMDSKKRIGWRFIRIDTSCVCTLTIKRGR
- Kd [1]: < 0.034 nM
- Kd [2]: < 2.1 nM

Binder: B2
- Kd (ProNGF): 130 nM
- koff (ProNGF): 0.0858 s⁻¹
- kon (ProNGF): 658000 M⁻¹ s⁻¹

B3: NT3 (ligand, UniProt P20783 139-257, looked up)
chain: YAEHKSHRGEYSVCDSESLWVTDKSSAIDIRGHQVTVLGEIKTGNSPVKQYFYETRCKEARPVKNGCRGIDDKHWNSQCKTSQTYVRALTSENNKLVGWRWIRIDTSCVCALSRKIGRT
notes: 'native ligands' bought from R&D Systems or made in-house
- Kd [1]: < 4.4 nM

B4: NT4/5 (ligand, UniProt P34130 81-210, looked up)
chain: GVSETAPASRRGELAVCDAVSGWVTDRRTAVDLRGREVEVLGEVPAAGGSPLRQYFFETRCKADNAEEGGPGAGGGGCRGVDRRHWVSECKAKQSYVRALTADAQGRVGWRWIRIDTACVCTLLSRTGRA
- Kd [1]: < 0.2 nM
- koff [1]: 0.002 s⁻¹
- kon [1]: > 1e+07 M⁻¹ s⁻¹
- binding result [3]: no binding (tested: 0.08-250 nM)
- Kd [4]: 17 nM
- koff [4]: 0.04 s⁻¹
- kon [4]: 2.1e+06 M⁻¹ s⁻¹
- Kd [2]: 88 nM
- koff [2]: 0.305 s⁻¹
- kon [2]: 3.45e+06 M⁻¹ s⁻¹
